Experimental data: PMC4090420 (Biochemistry, 2013)

Biological target: 2F5 MAb (human)
Experiment: ELISA

B1: 2F5–17 αIM (designed binder)
chain: VSDVPRDLEVVAATPTSLLISWPYDKWAYRYYRITYGETGGNSPVQEFTVPGSKSTATISGLKPGVDYTITVYAVTRWYWVPHYSKPISINYRT
modifications: biotin on the birA site
fold lower affinity than the MPER peptide: ~10 fold
